The target in this assay is human TLR5 on HEK-Blue-hTLR5 cells (human) (UniProt O60602). The assay is described as follows: cell-based or functional assay.
UniProt O60602, sequence (O60602 21-858): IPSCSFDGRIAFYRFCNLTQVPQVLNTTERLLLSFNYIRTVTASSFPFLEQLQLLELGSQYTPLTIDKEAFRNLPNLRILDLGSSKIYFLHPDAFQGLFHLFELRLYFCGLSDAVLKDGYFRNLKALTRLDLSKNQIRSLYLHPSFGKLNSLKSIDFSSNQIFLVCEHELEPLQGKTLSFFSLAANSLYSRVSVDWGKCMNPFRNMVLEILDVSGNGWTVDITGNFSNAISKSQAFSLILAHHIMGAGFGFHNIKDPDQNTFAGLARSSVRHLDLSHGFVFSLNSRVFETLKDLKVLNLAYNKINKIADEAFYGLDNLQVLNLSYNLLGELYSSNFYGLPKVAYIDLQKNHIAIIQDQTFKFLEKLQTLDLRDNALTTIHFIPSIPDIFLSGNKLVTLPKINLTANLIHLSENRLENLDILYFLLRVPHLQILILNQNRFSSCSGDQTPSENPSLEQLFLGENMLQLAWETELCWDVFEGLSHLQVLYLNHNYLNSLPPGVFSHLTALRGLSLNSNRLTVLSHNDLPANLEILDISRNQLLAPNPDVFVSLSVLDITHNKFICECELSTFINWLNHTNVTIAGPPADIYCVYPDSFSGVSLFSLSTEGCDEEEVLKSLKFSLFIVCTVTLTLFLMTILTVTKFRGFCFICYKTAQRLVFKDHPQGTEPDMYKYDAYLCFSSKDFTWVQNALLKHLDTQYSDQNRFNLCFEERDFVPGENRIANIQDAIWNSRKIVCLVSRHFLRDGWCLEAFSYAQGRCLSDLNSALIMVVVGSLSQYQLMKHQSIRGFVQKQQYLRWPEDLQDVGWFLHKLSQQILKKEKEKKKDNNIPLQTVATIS

“flagellin (G239HPG, M310I, M466I) conjugated to Hepatitis B core (HBc) VLP by azide-alkyne click reaction” registered a flagellin bioactivity (SEAP reporter, HEK-Blue-hTLR5 cells), fold against free flagellin of 10 fold. “flagellin (fliC gene product) from Salmonella typhimurium SL1344, wild-type, produced by cell-free protein synthesis (from UniProt P06179 2-495) (ligand)” came in with an EC50 in flagellin bioactivity assay (SEAP reporter, HEK-Blue-hTLR5 cells) of 2.4 pM and a bioactivity assay (SEAP reporter, HEK-Blue-hTLR5 cells), given as 'affinity' of 6 pM. As to “flagellin Mutation III (M1HPG, Ala2Ile, M310I, M466I) conjugated to Hepatitis B core (HBc) VLP”, the bioactivity assay (SEAP reporter, HEK-Blue-hTLR5 cells), fold against free flagellin came to 5 fold.

These data come from patent US20130323281A1.
